4 molecules from patent US7410949 can be followed below.

One experiment concerns the target Y1R. The experiment is described as follows: cell-based or functional assay.
For the next experiment, the target named is Y4R. The experiment in a line: cell-based or functional assay.

Primed or numbered codes have the meaning given here. [ ]: non-standard residue; d: D form. Pqa″ = not defined here

Sequence of Y1R (P25929 whole entry): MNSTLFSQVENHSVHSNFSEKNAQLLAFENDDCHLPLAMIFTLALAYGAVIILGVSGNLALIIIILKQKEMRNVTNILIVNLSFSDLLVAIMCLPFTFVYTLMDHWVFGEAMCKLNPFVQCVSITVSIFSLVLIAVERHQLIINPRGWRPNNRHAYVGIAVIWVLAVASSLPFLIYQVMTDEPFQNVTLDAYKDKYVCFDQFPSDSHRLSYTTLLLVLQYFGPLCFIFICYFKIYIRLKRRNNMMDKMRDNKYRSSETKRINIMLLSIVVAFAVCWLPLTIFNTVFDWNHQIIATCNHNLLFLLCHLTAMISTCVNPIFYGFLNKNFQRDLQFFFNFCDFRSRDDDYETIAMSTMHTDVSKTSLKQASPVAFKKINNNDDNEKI

B1: H-Ile-Lys-Pqa-Arg-His-Tyr-Ala-Asn-Leu-Val-Thr-Arg-Gln-Arg-Tyr-NH2 (peptide)
peptide: H-IK[Pqa″]RHYANLVTRQRY-NH2
modifications: reading uncertain; also: printed as H-Ile-Lys-Pqa-Arg-His-Tyr-Ala-Asn-Leu-Val-Thr-Arg-Gln-Arg-Tyr-NH2
B1 returned a Y1R EC50(nM) FLIPR with Y1R of over 5000 nM. The Y4R EC50(nM) FLIPR in the experiment with Y4R is over 5000 nM.

B2: H-Ile-Lys-Pqa-Arg-His-Ala-Leu-Asn-Leu-Val-Thr-Arg-Gln-Arg-Tyr-NH2 (peptide)
peptide: H-IK[Pqa″]RHALNLVTRQRY-NH2
modifications: reading uncertain; also: printed as H-Ile-Lys-Pqa-Arg-His-Ala-Leu-Asn-Leu-Val-Thr-Arg-Gln-Arg-Tyr-NH2
On to B2, for which the Y1R EC50(nM) FLIPR with Y1R is over 5000 nM. The same molecule returned a Y4R EC50(nM) FLIPR with Y4R of over 5000 nM.

B3: H-Ile-Lys-Pqa-Arg-His-Trp-Leu-Asn-Leu-Val-Thr-Arg-Gln-Arg-Tyr-NH2 (peptide)
peptide: H-IK[Pqa″]RHWLNLVTRQRY-NH2
modifications: reading uncertain; also: printed as H-Ile-Lys-Pqa-Arg-His-Trp-Leu-Asn-Leu-Val-Thr-Arg-Gln-Arg-Tyr-NH2
The molecule B3 yielded a Y4R EC50(nM) FLIPR with Y4R of over 5000 nM.

B4: H-Ile-Lys-Pqa-Ala-His-Trp-Leu-Asn-Leu-Val-Thr-Arg-Gln-Arg-Tyr-NH2 (peptide)
peptide: H-IK[Pqa″]AHWLNLVTRQRY-NH2
modifications: reading uncertain; also: printed as H-Ile-Lys-Pqa-Ala-His-Trp-Leu-Asn-Leu-Val-Thr-Arg-Gln-Arg-Tyr-NH2
For B4, the Y4R EC50(nM) FLIPR with Y4R is over 5000 nM.
